# Assay results reported in patent publication US20020086323.
# Molecular target: T1, LtrA (Lactococcus lactis) (UniProt P0A3U0)
# T1 sequence: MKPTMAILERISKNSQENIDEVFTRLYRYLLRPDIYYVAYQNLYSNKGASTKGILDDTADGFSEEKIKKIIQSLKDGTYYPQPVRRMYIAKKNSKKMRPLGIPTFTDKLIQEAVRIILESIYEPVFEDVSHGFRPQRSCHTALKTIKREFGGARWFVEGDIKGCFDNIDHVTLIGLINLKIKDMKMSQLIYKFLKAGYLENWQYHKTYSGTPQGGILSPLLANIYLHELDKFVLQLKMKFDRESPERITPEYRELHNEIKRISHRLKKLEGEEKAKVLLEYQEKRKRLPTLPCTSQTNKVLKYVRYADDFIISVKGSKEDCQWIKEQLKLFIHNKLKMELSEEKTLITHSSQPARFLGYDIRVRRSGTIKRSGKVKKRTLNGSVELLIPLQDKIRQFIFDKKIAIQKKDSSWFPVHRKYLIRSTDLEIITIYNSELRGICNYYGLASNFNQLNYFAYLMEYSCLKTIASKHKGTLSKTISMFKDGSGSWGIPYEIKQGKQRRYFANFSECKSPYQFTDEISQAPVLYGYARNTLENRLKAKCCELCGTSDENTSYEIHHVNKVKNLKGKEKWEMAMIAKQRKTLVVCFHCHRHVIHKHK
# Test: cleavage_in_vitro
substance,measurement,value
Ll.ltrB intron RNA ; ltrB +2 to +5 TGCG,binding signal,< 10 % of WT
